Measured values from patent US20170240883A1, “CYCLIC PEPTIDES EXPRESSED BY A GENETIC PACKAGE” (Miti Biosystems GmbH, priority 2014, published 2017).

B1: CelfProcM5: C-terminal leaderA4.3 ProcM enzyme-leader fusion, 5-pair linker, used to modify leader-free SynLib1 (protein)
chain: MSEEQLKAFIAKVQADTSLQEQLKAEGADVVAIAKAAGFTITTEDLNSHRQNLTDDELEGVAGGSASGSGSGSAMESPSSWKTSWLAAIAPDEPHKFDRRLEWDELSEENFFAALNSEPASLEEDDPCFEEALQDALEALKAAWDLPLLPVDNNLNRPFVDVWWPIRCHSAESLRQSFVSDSAGLADEIFDQLADSLLDRLCALGDQVLWEAFNKERTPGTMLLAHLGAAGDGSGPPVREHYERFIQSHRRNGLAPLLKEFPVLGRLIGTVLSLWFQGSVEMLQRICADRTVLQQCFAIPCGHHLKTVKQGLSDPHRGGRAVAVLEFADPNSTANSSMHVVYKPKDMAVDAAYQATLADLNTHSDLSPLRTLAIHNGNGYGYMEHVVHHLCANDKELTNFYFNAGRLTALLHLLGCTDCHHENLIACGDQLLLIDTETLLEADLPDHISDASSTTAQPKPSSLQKQFQRSVLRSGLLPQWMFLGESKLAIDISALGMSPPNKPERIALGWLGFNSDGMMPGRVSQPVEIPTSLPVGIGEVNPFDRFLEDFCDGFSMQSEALIKLRNRWLDVNGVLAHFAGLPRRIVLRATRVYFTIQRQQLEPTALRSPLAQALKLEQLTRSFLLAESKPLHWPIFAAEVKQMQHLDIPFFTHLIDADALQLGGLEQELPGFIQTSGLAAAYERLRNLDTDEIAFQLRLIRGAVEARELHTTPESSPTLPPPATPEALMSSSAETSLEAAKRIAHRLLELAIRDSQGQVEWLGMDLGADGESFSFGPVGLSLYGGSIGIAHLLQRLQAQQVSLMDADAIQTAILQPLVGLVDQPSDDGRRRWWRDQPLGLSGCGGTLLALTLQGEQAMANSLLAAALPRFIEADQQLDLIGGCAGLIGSLVQLGTESALQLALRAGDHLIAQQNEEGAWSSSSSQPGLLGFSHGTAGYAAALAHLHAFSADERYRTAAAAALAYERARFNKDAGNWPDYRSIGRDSDSDEPSFMASWCHGAPGIALGRACLWGTALWDEECTKEIGIGLQTTAAVSSVSTDHLCCGSLGLMVLLEMLSAGPWPIDNQLRSHCQDVAFQYRLQALQRCSAEPIKLRCFGTKEGLLVLPGFFTGLSGMGLALLEDDPSRAVVSQLISAGLWPTESASGSGSGSAMSEEQLKAFIAKVQADTSLQEQLKAEGADVVAIAKAAGFTITTEDLNSHRQNLTDDELEGVAGG
modifications: Enzyme-Leader-Fusion
B2: CelfProcM10: C-terminal leaderA4.3 ProcM enzyme-leader fusion, 10-pair linker, used to modify leader-free SynLib1 (protein)
chain: MSEEQLKAFIAKVQADTSLQEQLKAEGADVVAIAKAAGFTITTEDLNSHRQNLTDDELEGVAGGSASGSGSGSAMESPSSWKTSWLAAIAPDEPHKFDRRLEWDELSEENFFAALNSEPASLEEDDPCFEEALQDALEALKAAWDLPLLPVDNNLNRPFVDVWWPIRCHSAESLRQSFVSDSAGLADEIFDQLADSLLDRLCALGDQVLWEAFNKERTPGTMLLAHLGAAGDGSGPPVREHYERFIQSHRRNGLAPLLKEFPVLGRLIGTVLSLWFQGSVEMLQRICADRTVLQQCFAIPCGHHLKTVKQGLSDPHRGGRAVAVLEFADPNSTANSSMHVVYKPKDMAVDAAYQATLADLNTHSDLSPLRTLAIHNGNGYGYMEHVVHHLCANDKELTNFYFNAGRLTALLHLLGCTDCHHENLIACGDQLLLIDTETLLEADLPDHISDASSTTAQPKPSSLQKQFQRSVLRSGLLPQWMFLGESKLAIDISALGMSPPNKPERIALGWLGFNSDGMMPGRVSQPVEIPTSLPVGIGEVNPFDRFLEDFCDGFSMQSEALIKLRNRWLDVNGVLAHFAGLPRRIVLRATRVYFTIQRQQLEPTALRSPLAQALKLEQLTRSFLLAESKPLHWPIFAAEVKQMQHLDIPFFTHLIDADALQLGGLEQELPGFIQTSGLAAAYERLRNLDTDEIAFQLRLIRGAVEARELHTTPESSPTLPPPATPEALMSSSAETSLEAAKRIAHRLLELAIRDSQGQVEWLGMDLGADGESFSFGPVGLSLYGGSIGIAHLLQRLQAQQVSLMDADAIQTAILQPLVGLVDQPSDDGRRRWWRDQPLGLSGCGGTLLALTLQGEQAMANSLLAAALPRFIEADQQLDLIGGCAGLIGSLVQLGTESALQLALRAGDHLIAQQNEEGAWSSSSSQPGLLGFSHGTAGYAAALAHLHAFSADERYRTAAAAALAYERARFNKDAGNWPDYRSIGRDSDSDEPSFMASWCHGAPGIALGRACLWGTALWDEECTKEIGIGLQTTAAVSSVSTDHLCCGSLGLMVLLEMLSAGPWPIDNQLRSHCQDVAFQYRLQALQRCSAEPIKLRCFGTKEGLLVLPGFFTGLSGMGLALLEDDPSRAVVSQLISAGLWPTESASGSGSGSGSTSGSGSGSAMSEEQLKAFIAKVQADTSLQEQLKAEGADVVAIAKAAGFTITTEDLNSHRQNLTDDELEGVAGG
modifications: Enzyme-Leader-Fusion
B3: CelfProcM15: C-terminal leaderA4.3 ProcM enzyme-leader fusion, 15-pair linker, used to modify leader-free SynLib1 (protein)
chain: MSEEQLKAFIAKVQADTSLQEQLKAEGADVVAIAKAAGFTITTEDLNSHRQNLTDDELEGVAGGSASGSGSGSAMESPSSWKTSWLAAIAPDEPHKFDRRLEWDELSEENFFAALNSEPASLEEDDPCFEEALQDALEALKAAWDLPLLPVDNNLNRPFVDVWWPIRCHSAESLRQSFVSDSAGLADEIFDQLADSLLDRLCALGDQVLWEAFNKERTPGTMLLAHLGAAGDGSGPPVREHYERFIQSHRRNGLAPLLKEFPVLGRLIGTVLSLWFQGSVEMLQRICADRTVLQQCFAIPCGHHLKTVKQGLSDPHRGGRAVAVLEFADPNSTANSSMHVVYKPKDMAVDAAYQATLADLNTHSDLSPLRTLAIHNGNGYGYMEHVVHHLCANDKELTNFYFNAGRLTALLHLLGCTDCHHENLIACGDQLLLIDTETLLEADLPDHISDASSTTAQPKPSSLQKQFQRSVLRSGLLPQWMFLGESKLAIDISALGMSPPNKPERIALGWLGFNSDGMMPGRVSQPVEIPTSLPVGIGEVNPFDRFLEDFCDGFSMQSEALIKLRNRWLDVNGVLAHFAGLPRRIVLRATRVYFTIQRQQLEPTALRSPLAQALKLEQLTRSFLLAESKPLHWPIFAAEVKQMQHLDIPFFTHLIDADALQLGGLEQELPGFIQTSGLAAAYERLRNLDTDEIAFQLRLIRGAVEARELHTTPESSPTLPPPATPEALMSSSAETSLEAAKRIAHRLLELAIRDSQGQVEWLGMDLGADGESFSFGPVGLSLYGGSIGIAHLLQRLQAQQVSLMDADAIQTAILQPLVGLVDQPSDDGRRRWWRDQPLGLSGCGGTLLALTLQGEQAMANSLLAAALPRFIEADQQLDLIGGCAGLIGSLVQLGTESALQLALRAGDHLIAQQNEEGAWSSSSSQPGLLGFSHGTAGYAAALAHLHAFSADERYRTAAAAALAYERARFNKDAGNWPDYRSIGRDSDSDEPSFMASWCHGAPGIALGRACLWGTALWDEECTKEIGIGLQTTAAVSSVSTDHLCCGSLGLMVLLEMLSAGPWPIDNQLRSHCQDVAFQYRLQALQRCSAEPIKLRCFGTKEGLLVLPGFFTGLSGMGLALLEDDPSRAVVSQLISAGLWPTESASGSGSGSGSGSGSGSGSGSTSGSGSGSAMSEEQLKAFIAKVQADTSLQEQLKAEGADVVAIAKAAGFTITTEDLNSHRQNLTDDELEGVAGG
modifications: Enzyme-Leader-Fusion

Biological target: T1, Human Plasma Kallikrein (Homo sapiens, UniProt P03952)
T1 construct: purchased Molecular Innovations, Inc, USA
Assay: Phage selection of leader-free SynLib1 library modified by Celf ProcM enzyme-leader fusions on biotinylated kallikrein (output titre)
Type: binding
Conditions: for difference in titre using 9.75 nM kallikrein and using 0 nM kallikrein: R3
Experimental: Human Plasma Kallikrein (Molecular Innovations, Inc, USA) at 1.15 mg/ml (13 μM) solution in 4 mM acetate, 150 mM NaCl, pH 5.3 was biotinylated using NHS-PEG4-Biotin from the EZ-link micro-PEO4-biotinylation kit (Pierce Biotechnology, USA). 680 μl of water was added to the contents of the pre-weighed vial of biotinylation reagent to make a 5 mM solution. 1 μl of this solution was added to 100 μl of the kallikrein solution. This was incubated at RT for 1 hour prior to the separation of the biotinylated protein from the unreacted biotin, using a 2 ml Spin Desalting column (Pierce Biotechnology, USA). The volume of the kallikrein was made up to 350 μl with PBS (Formedium Ltd, UK) and was loaded onto the spin column which had been equilibrated with PBS (as per the manufacturer's instructions). When this solution had been absorbed into the column matrix, a further 50 μl of PBS was added on top and the column was spun in a centrifuge at 1000 g for 2 min. 395 μl of solution was collected, making the concentration of the biotinylated kallikrein about 3.25 μM.
150 μl of stock leader-free SynLib1 library (4.5e11 phage per μl) was added to 1850 μl of TE buffer, 2 μl 1 M TCEP (Melford Biolaboratories Ltd, UK) and incubated at RT for 20 minutes to reduce the peptides on the phage. 400 μl of 2.5 M NaCl, 20% w/v PEG 8000 was added, incubated at RT for five minutes and the precipitated phages were collected by centrifugation at 15000 g for five minutes. The supernatant was discarded and the phages were resuspended in 150 μl of 25 mM Tris pH 7.5 (Sigma Aldrich, Austria), 1 μM TCEP.
Selections are performed by removing streptavidin-binding clones by pre-exposing the library to streptavidin resin, which is then discarded, mixing the library with decreasing concentrations of biotinylated target for an hour at each round of selection, capture of the biotinylated target and thereby any phage binding the target with magnetic streptavidin resin followed by extensive washing of the resin. Finally, the washed resin has the phage eluted from the target by exposure to a low pH solution, neutralisation of the solution and infection of E. coli by the eluted phage.
Round 1 (R1) of the selection was performed by adding 50 μl of LodeStars streptavidin resin (Agilent Technologies, USA), from which the liquid had been removed by magnetic capture, to the modified phage solution for 30 minutes to capture the peptide sequence that bind to streptavidin (deselection). The resin was captured magnetically and the phage-containing supernatant was collected and made up to 500 μl with 25 mM Tris pH 7.5, 0.05% Tween 20 (Melford Biolaboratories Ltd, UK). Biotinylated kallikrein was added to 100 nM, and mixed at RT for 1 hour prior to processing on a KingFisher mL (Thermo Fisher, Austria) magnetic particle washer. The processing involved the KingFisher transferring 25 μl of streptavidin resin to the phage solution and mixing for five minutes. The resin/phage were then collected and washed in 8×1 ml of PBS+0.05% Tween 20 (PBST). The resin was then mixed in 50 μl of 50 mM glycine pH 2.2 (Melford Biolaboratories Ltd, UK) for five minutes to elute the phage and the resin was removed. The phage-containing supernatant was neutralised with 10 μl of 1 M Tris pH 8.0 and added to 1 ml of TG1 cells at A600 of 0.6 followed by incubation at 37° C., 250 rpm for 1 hour. The phage titre was determination by adding 4 μl of culture to 96 μl of water, which was used to make five, 10-fold dilutions; 10 μl from each of these was spotted onto an LB+tetracycline agar plate. The remainder of the culture was made up to 11 ml with 2TY plus tetracycline and incubated at 37° C., 250 rpm overnight.
10 ml of overnight culture was reduced with 10 μl of 1 M TCEP for 20 min at RT followed by removal of the cells by centrifugation at 15000 g for five minutes. […]

T1 sequence (P03952 20-638): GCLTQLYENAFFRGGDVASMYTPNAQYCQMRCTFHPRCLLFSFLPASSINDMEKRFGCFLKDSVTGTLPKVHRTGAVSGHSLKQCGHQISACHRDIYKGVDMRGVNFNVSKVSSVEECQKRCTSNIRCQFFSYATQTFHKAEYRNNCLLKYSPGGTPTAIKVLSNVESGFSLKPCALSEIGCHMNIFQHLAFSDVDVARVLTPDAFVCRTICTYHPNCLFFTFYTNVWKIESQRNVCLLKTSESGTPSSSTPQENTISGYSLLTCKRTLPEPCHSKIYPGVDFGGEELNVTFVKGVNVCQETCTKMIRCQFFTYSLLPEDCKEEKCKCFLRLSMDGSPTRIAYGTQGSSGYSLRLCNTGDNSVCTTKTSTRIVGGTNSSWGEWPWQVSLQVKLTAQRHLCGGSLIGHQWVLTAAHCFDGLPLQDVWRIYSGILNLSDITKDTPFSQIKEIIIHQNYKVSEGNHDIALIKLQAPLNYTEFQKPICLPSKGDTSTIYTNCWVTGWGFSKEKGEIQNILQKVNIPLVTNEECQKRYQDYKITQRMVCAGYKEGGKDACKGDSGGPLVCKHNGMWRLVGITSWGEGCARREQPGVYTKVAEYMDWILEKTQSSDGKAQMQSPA

Row | Molecule | output titre (number of phages eluted at the end of the round) (R1, 100 nM kallikrein) | output titre (number of phages eluted at the end of the round) (R2, 33 nM kallikrein) | difference in titre using 9.75 nM kallikrein and using 0 nM kallikrein [fold] | output titre (number of phages eluted at the end of the round) (R3, 0 nM kallikrein) | output titre (number of phages eluted at the end of the round) (R3, 9.75 nM kallikrein)
1 | B1 | 6.4e5 | 5.3e5 | 10 | 5.0e4 | 5.0e5
2 | B2 | 4.2e6 | 2.9e5 | 6.5 | 5.3e4 | 3.4e5
3 | B3 | 2.7e6 | 2.7e5 | 36 | 2.7e4 | 9.5e5
